Source: US10654939

Experiments:
[1] = molecular target: human CD40 expressed on cells (human) (UniProt P25942); assay: FACS, HEK293A/humanCD40 cells
[2] = molecular target: recombinant human CD40 (ECD)-his (human) (UniProt P25942); assay: ELISA, hCD40(ECD)-his coated
[3] = molecular target: rhesus CD40 expressed on HEK293A cells (rhesus monkey); assay: FACS, HEK293A/rhesusCD40 cells
[4] = molecular target: human CD40 expressed on cells (human) (UniProt P25942); assay: cell-based or functional assay
[5] = molecular target: recombinant human CD40 (ECD)-his (human) (UniProt P25942); assay: SPR (Biacore 8K), hCD40(ECD)-his coupled to chip, antibody injected
[6] = molecular target: recombinant rhesus CD40 (ECD)-hFc (rhesus monkey); assay: ELISA, rhCD40(ECD)-hFc coated
Chain of recombinant rhesus CD40 (ECD)-hFc (rhesus monkey) (P25942 other isoform, or with tags, fused parts or gaps): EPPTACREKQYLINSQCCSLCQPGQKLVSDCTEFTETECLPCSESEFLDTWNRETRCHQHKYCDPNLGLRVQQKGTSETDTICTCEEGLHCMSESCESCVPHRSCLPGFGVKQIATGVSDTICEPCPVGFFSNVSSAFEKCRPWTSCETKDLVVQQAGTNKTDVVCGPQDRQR

Chain of recombinant human CD40 (ECD)-his (human) (P25942 21-193): as the sequence (P25942 other isoform, or with tags, fused parts or gaps) above, with S43G, R56H, L89W, M92T, S95A, P101L, L106S, R142H, Q172L counted along it
Chain of human CD40 expressed on cells (human) (P25942 21-277 limits assumed): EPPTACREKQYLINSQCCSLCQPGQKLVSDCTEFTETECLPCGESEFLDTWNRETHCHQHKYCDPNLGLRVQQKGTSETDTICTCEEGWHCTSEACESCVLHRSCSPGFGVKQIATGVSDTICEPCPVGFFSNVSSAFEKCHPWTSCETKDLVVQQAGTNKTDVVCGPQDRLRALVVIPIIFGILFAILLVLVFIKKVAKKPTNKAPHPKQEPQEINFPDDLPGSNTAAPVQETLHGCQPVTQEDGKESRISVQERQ
Chain of rhesus CD40 expressed on HEK293A cells (rhesus monkey) (P25942 other isoform, or with tags, fused parts or gaps limits assumed): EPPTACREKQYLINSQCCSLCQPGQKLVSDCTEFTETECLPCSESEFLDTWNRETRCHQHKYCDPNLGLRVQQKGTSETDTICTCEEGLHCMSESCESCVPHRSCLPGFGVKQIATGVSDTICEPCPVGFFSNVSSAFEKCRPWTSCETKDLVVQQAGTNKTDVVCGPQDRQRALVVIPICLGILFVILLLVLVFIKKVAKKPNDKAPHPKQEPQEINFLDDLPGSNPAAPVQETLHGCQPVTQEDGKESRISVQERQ

EC50 [1]: 0.149 µg/mL
EC50 [2]: 0.024 µg/mL
EC50 [3]: 0.0673 µg/mL
HEK Blue EC50 [4]: 1.03 µg/mL
Kd [5]: 29 nM
koff [5]: 0.0348 s⁻¹
kon [5]: 1.2e+06 M⁻¹ s⁻¹
EC50 [6]: 0.0229 µg/mL
B1: ADC1013 (antibody, INN chains, looked up, V domains shown)
VH: EVQLLESGGGLVQPGGSLRLSCAASGFTFSTYGMHWVRQAPGKGLEWLSYISGGSSYIFYADSVRGRFTISRDNSENALYLQMNSLRAEDTAVYYCARILRGGSGMDLWGQGTLVTVSS
VL: QSVLTQPPSASGTPGQRVTISCTGSSSNIGAGYNVYWYQQLPGTAPKLLIYGNINRPSGVPDRFSGSKSGTSASLAISGLRSEDEADYYCAAWDKSISGLVFGGGTKLTVL
modifications: IgG1/kappa
